Test results from patent US20110223107A1.
Numbering of substitutions follows the chain as printed.

B1: A9 (Fab, V domains shown)
VH: QVQVQQPGAELVRPGASVTLSCKASGYIFTDYEVHWVRQRPVHGLEWIGVIDPETGDTAYNQKFKGKATLTADKSSSTAYMELSSLTAEDSAVYYCIGYADYWGQGTTLTVSS
VL: DIVMTQSPSSLAMSLGQKVTMSCKSSQSLLNSNNQLNYLAWYQQKPGQSPKLLVYFASTRKSGVPDRFIGSGSGTDFTLTITSVQAEDLADYFCQQHFNTPLTFGAGTKLELK
B2: Fab of well C2 (Omniclonal AL0003Z1 plate) (Fab, V domains shown)
VH: DVQLQESGPDLVKPSQSLSLTCTVTGFSITSGYGWHWIRQFPGNKLEWMGYISFNGDSNYNPSLKSRISITRDTSKNQFFLQLNSVTSEDTATYYCASSYDGLFAYWGQGPLVTVSA
VL: DIQMTQSPSSMYASLGERVTLTCKASQDIHNYLNWFQQKPGKSPKTLIHRANRLVAGVPSRFSGSGSGQDYSLTISSLEYEDLGIYYCLQYDAFPLTFGAGTKLELK
B3: 3C4 mouse anti-KAAG1 Fab (Fab, V domains shown)
VH: B2 VH with D1E, S53N, F54Y, N55D, D57H, S58N, N59D, R72Q, S88T, P111T
VL: DIVMSQSPSSMYASLGERVTITCKASQDIHNFLNWFQQKPGKSPKTLIFRANRLVDGVPSRFSGSGSGQDYSLTISSLEFEDLGIYSCLQYDEIPLTFGAGTKLELR
B4: Fab of well D1 (Omniclonal AL0003Z1 plate) (Fab, V domains shown)
VH: B2 VH with D1E, N44D, S58Y, N84S, S88T, P111T
VL: B2 VL with Q3K, L21I, N31T, K45E, H49Y, A56D, L83M, A93E
B5: 3D3 mouse anti-KAAG1 Fab (Fab, V domains shown)
VH: EVQLQQSVAELVRPGASVTLSCKASGYIFTDYEIHWVKQTPVHGLEWIGVIDPETGNTAFNQKFKGKATLTADISSSTAYMELSSLTSEDSAVYYCMGYSDYWGQGTTLTVSS
VL: DIVMTQSPSSLAVSIGQKVTMNCKSSQSLLNSNFQKNFLAWYQQKPGQSPKLLIYFASTRESSIPDRFIGSGSGTDFTLTISSVQAEDLADYFCQQHYSTPLTFGAGTKLELK
B6: G12 (Fab, V domains shown)
VH: B5 VH with L20V, V42A
VL: DIVMTQSPKFMSTSVGDRVSITCKASQDVGTAVAWYQQKPGQSPELLIYWTSTRHTGVPDRFSGSGSGTDFTLTISSVQAEDLADYFCQQHYSIPLTFGAGTKLELR
B7: Fab of well E10 (Omniclonal AL0003Z1 plate) (Fab, V domains shown)
VH: EVQLQQSGPELVKPGASVKISCKASGDTFTDYYMNWVKQSHGKSLEWIGDINPNYGGITYNQKFKGKATLTVDTSSSTAYMELRGLTSEDSAVYYCQAYYRNSDYWGQGTTLTVSS
VL: DIVMTQAAPSVPVTPGESVSISCRSSKSLLHSNGNTYLYWFLQRPGQSPQLLIYRMSNLASGVPDRFSGSGSGTAFTLRISRVEAEDVGVYYCMQHLEYPYTFGGGTKLEIK

Molecular target: Fc-0447 1-60 (human) (UniProt Q9UBP8)
Assay: ELISA

Binder | OD450
B1 | 2.29
B2 | 0.48
B3 | 0.57
B4 | 0.27
B5 | 1.33
B6 | 1.52

Molecular target: T1, Fc-fused truncated mutant of KAAG1 spanning amino acids 1-35 (human)
T1 sequence: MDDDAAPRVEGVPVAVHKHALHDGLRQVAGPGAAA
Assay: ELISA

Binder | OD450
B7 | 0.33
